# Experimental data from US20110263454A1, “Methods of Identifying Functional Characteristics of Promoters, Transcription Modifying Proteins and Transcription Modulating Agents” (Salk Institute for Biological Studies, priority 2008, published 2011).
# B1: RVRb: Rev-Erb β (NR1D2, alternative name RVR), cDNA driver (protein, UniProt Q14995 1-579, looked up)
# Nuclear receptor subfamily 1 …: MEVNAGGVIAYISSSSSASSPASCHSEGSENSFQSSSSSVPSSPNSSNSDTNGNPKNGDLANIEGILKNDRIDCSMKTSKSSAPGMTKSHSGVTKFSGMVLLCKVCGDVASGFHYGVHACEGCKGFFRRSIQQNIQYKKCLKNENCSIMRMNRNRCQQCRFKKCLSVGMSRDAVRFGRIPKREKQRMLIEMQSAMKTMMNSQFSGHLQNDTLVEHHEQTALPAQEQLRPKPQLEQENIKSSSPPSSDFAKEEVIGMVTRAHKDTFMYNQEQQENSAESMQPQRGERIPKNMEQYNLNHDHCGNGLSSHFPCSESQQHLNGQFKGRNIMHYPNGHAICIANGHCMNFSNAYTQRVCDRVPIDGFSQNENKNSYLCNTGGRMHLVCPMSKSPYVDPHKSGHEIWEEFSMSFTPAVKEVVEFAKRIPGFRDLSQHDQVNLLKAGTFEVLMVRFASLFDAKERTVTFLSGKKYSVDDLHSMGAGDLLNSMFEFSEKLNALQLSDEEMSLFTAVVLVSADRSGIENVNSVEALQETLIRALRTLIMKNHPNEASIFTKLLLKLPDLRSLNNMHSEELLAFKVHP
# B2: RARa: Retinoic acid receptor α (NR1B1), nuclear hormone receptor cDNA driver (protein, UniProt P10276 1-462, looked up)
# Retinoic acid receptor alpha: MASNSSSCPTPGGGHLNGYPVPPYAFFFPPMLGGLSPPGALTTLQHQLPVSGYSTPSPATIETQSSSSEEIVPSPPSPPPLPRIYKPCFVCQDKSSGYHYGVSACEGCKGFFRRSIQKNMVYTCHRDKNCIINKVTRNRCQYCRLQKCFEVGMSKESVRNDRNKKKKEVPKPECSESYTLTPEVGELIEKVRKAHQETFPALCQLGKYTTNNSSEQRVSLDIDLWDKFSELSTKCIIKTVEFAKQLPGFTTLTIADQITLLKAACLDILILRICTRYTPEQDTMTFSDGLTLNRTQMHNAGFGPLTDLVFAFANQLLPLEMDDAETGLLSAICLICGDRQDLEQPDRVDMLQEPLLEALKVYVRKRRPSRPHMFPKMLMKITDLRSISAKGAERVITLKMEIPGSMPPLIQEMLENSEGLDTLSGQPGGGGRDGGGLAPPPGSCSPSLSPSSNRSSPATHSP
# B3: RORg: RAR-related Orphan Receptor γ (NR1F3), cDNA driver (protein, UniProt P51449 1-518, looked up)
# Nuclear receptor ROR-gamma: MDRAPQRQHRASRELLAAKKTHTSQIEVIPCKICGDKSSGIHYGVITCEGCKGFFRRSQRCNAAYSCTRQQNCPIDRTSRNRCQHCRLQKCLALGMSRDAVKFGRMSKKQRDSLHAEVQKQLQQRQQQQQEPVVKTPPAGAQGADTLTYTLGLPDGQLPLGSSPDLPEASACPPGLLKASGSGPSYSNNLAKAGLNGASCHLEYSPERGKAEGRESFYSTGSQLTPDRCGLRFEEHRHPGLGELGQGPDSYGSPSFRSTPEAPYASLTEIEHLVQSVCKSYRETCQLRLEDLLRQRSNIFSREEVTGYQRKSMWEMWERCAHHLTEAIQYVVEFAKRLSGFMELCQNDQIVLLKAGAMEVVLVRMCRAYNADNRTVFFEGKYGGMELFRALGCSELISSIFDFSHSLSALHFSEDEIALYTALVLINAHRPGLQEKRKVEQLQYNLELAFHHHLCKTHRQSILAKLPPKGKLRSLCSQHVERLQIFQHLHPIVVQAAFPPLYKELFSTETESPVGLSK
# B4: RVRa: Rev-Erb α (NR1D1), cDNA driver (protein, UniProt P20393 1-614, looked up)
# Nuclear receptor subfamily 1 …: MTTLDSNNNTGGVITYIGSSGSSPSRTSPESLYSDNSNGSFQSLTQGCPTYFPPSPTGSLTQDPARSFGSIPPSLSDDGSPSSSSSSSSSSSSFYNGSPPGSLQVAMEDSSRVSPSKSTSNITKLNGMVLLCKVCGDVASGFHYGVHACEGCKGFFRRSIQQNIQYKRCLKNENCSIVRINRNRCQQCRFKKCLSVGMSRDAVRFGRIPKREKQRMLAEMQSAMNLANNQLSSQCPLETSPTQHPTPGPMGPSPPPAPVPSPLVGFSQFPQQLTPPRSPSPEPTVEDVISQVARAHREIFTYAHDKLGSSPGNFNANHASGSPPATTPHRWENQGCPPAPNDNNTLAAQRHNEALNGLRQAPSSYPPTWPPGPAHHSCHQSNSNGHRLCPTHVYAAPEGKAPANSPRQGNSKNVLLACPMNMYPHGRSGRTVQEIWEDFSMSFTPAVREVVEFAKHIPGFRDLSQHDQVTLLKAGTFEVLMVRFASLFNVKDQTVMFLSRTTYSLQELGAMGMGDLLSAMFDFSEKLNSLALTEEELGLFTAVVLVSADRSGMENSASVEQLQETLLRALRALVLKNRPLETSRFTKLLLKLPDLRTLNNMHSEKLLSFRVDAQ
# Test system: MCP-1 promoter
# Experiment: NHR-promoter luciferase screen, MCP-1 promoter
# Format: cell-based
# Details: MCP-1 promoter reporter; HR without or with its ligand; relative to control
# Experimental: (§1) The use, feasibility, and reproducibility of the functional NHR-promoter screen in a 48-well format have been tested validated. Briefly, there were co-expressed 50 ng of each NHR/NHR homodimer or NHR/RXR heterodimer with 100 ng promoter/luciferase construct and 50 ng of LacZ (as a control for transfection efficiency) in CV-1 cells using Fugene HD (Roche) as a transfection reagent (alternatively or additionally, a CMV-YFP construct can be used as a transfection control). Each of the nuclear hormone receptors that were used in these experiments was cloned into a pcDNA3.1 vector and comprised a C-terminally linked V5H6 tag. Twenty-four hours after transfection, appropriate ligands were added, where applicable, (see Table 5 for various ligands and concentrations and after 48 hrs, samples were assayed for luciferase and LacZ activity. To measure for luciferase activity 15 ul of sample was added to 30 ul of luciferase buffer (20 mM tricine, 1.07 mM MgCarbonate, 2.67 mM MgSulfate, 0.1 mM Naz-EDTA, 5 mM DTT, 5 mM ATP, 0.15 mg/ml CoA, 0.5 mM Luciferin), mixed briefly, and run in a Perkin Elmer Victor 5 luminometer. Thus, the functional NHR-promoter screen was used to observe the transcriptional activity of 29 promoters from various physiological pathways including inflammation, lipid and sugar metabolism, cholesterol transport, xenobiotic metabolism, and circadian rhythm.
# (§2) The promoters that facilitate transcription of the indicated gene products that were tested using the protocols described herein are listed in the first row of the table. The nuclear hormone receptors and, where applicable, ligands that were assayed for their transcriptional effects on the promoters are listed in the first column of the table. The data represent the luciferase activity of each sample normalized to both the lacZ activity of that sample and to a control, e.g., no NHR or ligand, as customary in the art. As described previously, these normalizations allow the transcriptional activity of each reporter cell to be compared to other samples.
# (§3) Tables 7-40 show the transcriptional effects of the hormone receptors, and, where applicable, ligands (orphan receptors are screened without ligand), on each individual promoter. […] The control data of each table are shown in their last rows.
row,Molecule,"Normalized Luc. act., normalized to control"
1,B1,1.6
2,B2,1.7
3,B3,2.8
4,B4,1.4

# Same assay, conditions: MCP-1 promoter reporter; hormone receptor (HR) without or with its ligand
row,Molecule,"Luc. act., normalized to lacZ"
1,B1,170.4
2,B2,182.3
3,B3,301.2
4,B4,149.4

# Same assay, conditions: transcription factor +/- ligand; control = 1.00
row,Molecule,mMCP-1 promoter reporter activity
1,B1,1.59
2,B2,1.70
3,B3,2.81
4,B4,1.40

# Test system: Bmal1 promoter
# Experiment: NHR-promoter luciferase screen, Bmal1 promoter
# Format: cell-based, mouse
# Details: Bmal1 promoter; HR component without or with ligand
# Experimental: as §1, §2, §3
Molecule,"Luc. act., normalized to lacZ","Normalized Luc. act., normalized to control"
B1,0.8,0.1
B2,18.9,1.2
B3,58.9,3.8
B4,2.5,0.2

# Same assay, conditions: FIG. 2c, in words
row,Molecule,regulation of the Bmal1 promoter
1,B1,specific repression
2,B3,specific activation
3,B4,specific repression

# Same assay, conditions: transcription factor +/- ligand; control = 1.00
row,Molecule,mBmal1 promoter reporter activity
1,B1,0.05
2,B2,1.21
3,B3,3.77
4,B4,0.16

# Test system: mADRP promoter
# Experiment: NHR-promoter luciferase screen, mADRP promoter
# Format: cell-based, mouse
# Details: ADRP promoter; HR/ligand component
# Experimental: as §1, §2, §3
Molecule,"Luc. act., normalized to lacZ","Normalized Luc. act., normalized to control"
B1,353.2,0.7
B2,628.8,1.3
B3,929.8,1.9
B4,522.2,1.0

# Same assay, conditions: transcription factor +/- ligand; control = 1.00
row,Molecule,mADRP promoter reporter activity
1,B1,0.71
2,B2,1.26
3,B3,1.87
4,B4,1.05

# Test system: hIFNg promoter
# Experiment: NHR-promoter luciferase screen, hIFNg promoter
# Format: cell-based, human
# Details: IFNg promoter; HR component without or with ligand
# Experimental: as §1, §2, §3
Molecule,"Luc. act., normalized to lacZ","Normalized Luc. act., normalized to control"
B1,19.5,1.2
B2,22.0,1.4
B3,17.9,1.1
B4,17.9,1.1

# Same assay, conditions: transcription factor +/- ligand; control = 1.00
row,Molecule,hIFNg promoter reporter activity
1,B1,1.22
2,B2,1.39
3,B3,1.12
4,B4,1.13

# Test system: mDio2 promoter
# Experiment: NHR-promoter luciferase screen, mDio2 promoter
# Format: cell-based, mouse
# Details: Dio2; HR component without or with its ligand
# Experimental: as §1, §2, §3
Molecule,"Luc. act., normalized to lacZ","Normalized Luc. act., normalized to control"
B1,19.7,1.3
B2,40.3,2.6
B3,58.7,3.7
B4,21.5,1.4

# Same assay, conditions: transcription factor +/- ligand; control = 1.00
row,Molecule,mDio2 promoter reporter activity
1,B1,1.26
2,B2,2.56
3,B3,3.74
4,B4,1.37

# Test system: mUCP3 promoter
# Experiment: NHR-promoter luciferase screen, mUCP3 promoter
# Format: cell-based, mouse
# Details: mUCP3 promoter reporter; HR without or with its ligand; relative to control
# Experimental: as §1, §2, §3
row,Molecule,"Normalized Luc. act., normalized to control"
1,B1,1.9
2,B2,1.8
3,B3,2.4
4,B4,1.2

# Same assay, conditions: mUCP3 promoter reporter; hormone receptor (HR) without or with its ligand
row,Molecule,"Luc. act., normalized to lacZ"
1,B1,1.3
2,B2,1.2
3,B3,1.6
4,B4,0.8

# Same assay, conditions: transcription factor +/- ligand; control = 1.00
row,Molecule,mUCP3 promoter reporter activity
1,B1,1.91
2,B2,1.76
3,B3,2.38
4,B4,1.24
